# Assay results published in the nanobody polyreactivity screen of Harvey et al. (2022).
# Experiment: yeast display, Sf9 membrane polyspecificity reagent, FACS + sequencing; frameworks hold sequencing errors
# Method in brief: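 Galactose induction of a Saccharomyces cerevisiae BJ5465 synthetic nanobody display library ran 36–48 hours. The cells were then stained for 1 hour at 4 °C with 10% biotinylated, detergent-solubilized Sf9 membrane reagent, pulled down on streptavidin microbeads and FACS-sorted into low and high (top ~1%) gates on expression and reagent-binding fluorescence. Labels for polyreactivity follow the gate of origin.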
row,Sequence,polyreactivity (PSR sort gate)
1,QVQLVESGGAFVQAGGTLRLICAASGRIFLYYAMGWYRHAPGKERELFAAIRISGGSTYYADSVKGRFTISRDNAKNTVYLQMNSLNAVDPAVYYCNADHKTIYPKYRGRFYYWGQGTQVTVTS,high polyreactivity
2,QVQLVESGGGLVQAGGILRLSCAASGSTFGENAMGWYRQSPGKERELVAAISRASSTDYADSVKGRFTISRDNAKNTVYLQMNSLKPEDTAVYYCAVSIFGSFNYDFYSWGQGTQVTVSS,low polyreactivity
3,QVQLVESGGGLVQAGGSLRLSCAASGLIFFSYAMGWYRQAPGKERELVAAISRRGGRTYYADSVKGRFTISRDNAKNTVYLQMNSLKPEDTAVYYCAADSGYVWYADDYWGQGTQVTVSS,low polyreactivity
4,QVQLVESVGGLVQAGGSLRLSCAASGSIFWFYAMGWYRQAPGKVRELVAAITSTGGTYYADSVKGRFTISRDNAKNTVYLQMNSLKPEDTSVYYCAADRFGVQGAYLYDYWGQGTQVTVSS,low polyreactivity
5,QVQLVESGGGLVQAGGSLRLRCAASGRIFRYYAMGWYRQAPGKARELVARITSSGSTYYADSVKGRFTISRDNAKNTVYLQMNSLKPEDTAVYYCAADWYRGGIVDSWGQGTQVTVSS,high polyreactivity
6,QVQLVESGGCLVQAGGSLRLSCAASGRTFYLYAMGWNRQAPGKEREFVARITFSGVSTYYADSVKGSFTISRDNAKNTVSLQMYRLKPEDTAVYYCNRVGHYGYSEGYYYWGQGTQVTVSS,high polyreactivity
7,QVQLVESGGGLVQAGGSLRLSCAASGSTFGIYAMGWYRPAPGKDREMVAAISSGVDTYYADSVKGRVTISRDNAKNTVDIQMNSLKPEDPAVYYCAADQFQGNSGFEYWGQGTQVTVSS,low polyreactivity
8,QVQLVESGGGLVQAGGSLRLSCAASGRTFPIYAMGWYRQAPGKERELVASITRSGGSTYYADSVKGRFTISRDNAKNTVYLQMNSLKPEDTAVYYCAAAANSYSVYTGKFYYWGQGTQVTVSS,high polyreactivity
9,QVQLVESGGGLVQAGGSLRLSCAASGRIFHHNAMVSYRQAPGKEMELVATITWSGGRTYYADSVKGRFTISRDNAKNTVYLQMNSLKPEDTAVYYCAASSYSYYGYRSYQSTYYYWGQGTQVTVSS,low polyreactivity
10,QVQLVESGGGIVQAGGSLRLSCAASGRTFTVYAMGWYRQARGTARELVAAINYSVGSTYYADSVKGRFTISRDNAKNTVYLQMNSLNPEDTAVYYCAADLYHFSYSNSYIRYDYWGQGTQVTVSS,low polyreactivity
11,QVQLVESGGGLVQAGGSLRLSCAASGFIFYRYAMGWYRQAPGKERELVAAISSSGGSTYYADSVKGRFTISRDNAKNTVYFQMNSLKPEDTAVYYCNKRPQQYRPGYDYWGQGTQVTVSS,high polyreactivity
12,QVQLVDSGGGLVQAGGSLRLSCAASGRTISKYAMGWNRQAPVKERELVAAITGSGGSTHYADSVKGRFTISRDNAKNTVYLQMNSLKPEDSAVYYCAAVPRYQYGYWGQGTQVTVSS,low polyreactivity
13,QVQLQESGRRPGAAGGSPRISCAASGYIFWVAVMGRYRQAPGKDRELVASIGFGCTTYYADSVKCRFTISRDNAKNSVYLQMISLKPEDTAVYYCAAPHYDWGELDYWGQGTQVPVSS,low polyreactivity
14,QVQLVESGGGLVQAGGSLRLSCAASGGTVWYYTMGWYRQAPGKERELVARITGGSRTNYADSVNGRFTISRDNAKNTVYLQMNSLKPEDTAVYYCARTSWSGVSYDYWGQGTQVTVSS,high polyreactivity
15,QVQLVESGGGLVQAGGSLRLSCAASGRTFRSDNALGWYRQPPGKERELVAAISQGGGTYYADSVKGRFTISRDNAKKTVYLQMNSLKPEDTAVYYCARDAYYADPSLWYYTYDYWGQGTQVTVSS,low polyreactivity
16,QVQLVESGGGLVQAGGSLRLSCAASGSTFYVNAMGWYRQAPGKERELVAVISTGGSTYYADSVKGRFTISRDNAKNTVYLQMNSLKPEDTAVYYCAKRDLPDRSGTPNVIPFDYWGQGSQVTVSS,low polyreactivity
17,QVQLVESGGRLVQAGGSLRLSCAASGRTFYIYAMGWYRQAPGKERELVADISWSGGSTYYADSVKGRFTISRDNAKNTVYLQMNSLKPEDTAVYYCAADLYVYPNWYLYYYWGQGTQVTVSS,high polyreactivity
18,QVQLVESGGGLVQAGGSLRLSCAASGRTFYAYVMGWYRQAPGKERELVAAISGGGRTYYADSVKGRFTISRDNAKNTVYLQMNSLKPEDTAVYYCAAVSLWYSAYEYWGQGTQVTVSS,high polyreactivity
19,QVQLVESGGGLVQAGGSLRLSCAASGSTFYLYAMGWYRQAPGKERELVAAISSGGRTYYADSVKGRFTISRDNAKNTVYLQMNRLKPEDTAVYYCAKVYRRRYYWGQGTQVNVSS,high polyreactivity
20,QDQLVESGGGLVQAGGSLRLSCAASGRTFAYKVMGWYRQAPGNERELVAANSRGGGRTYYADSVKGRFTISRDNAKNTVYLQMNSLKPEDTAVYYCNAASSGLSGRLTSIINDYWGQGTQVTVSS,high polyreactivity
21,QVQLVESGGGLVQAGGSLRLSCAASGFTFIRNGMGWYRQAPGKERELVAAINSRGGNTYYADSVKGRFTISRDNAKNTVYLQMNSLKPEDTAVYYCNRVVQRWSTQYGYWGQGTQVTVSS,high polyreactivity
22,QVQLVESGGGLVQAGGSLRLSCAASGRTFRWNAMGWSRQAPGKERELVASISSGGRTNYADSVKGRFTLSRDNAKNTVYLQMNSLKPEDTAVYYCAKRVSWPQLYDYWGQGTQVTVSS,high polyreactivity

row,Sequence,polyreactivity (PSR sort gate)
1,QVQLVESGGGLVQAGGSLRLSCAASRFTFSGYAMGWYRQAPGKERELVATISSSGSTYADSVKGRFTISRDNAKNTVYLQMNSLKPEDTAVYYCAKRVPFFDYWGQGTQVTVSS,low polyreactivity
2,QVQLVESGGGLVQAGGSLRLSCAASGSIIDYYAMGWYRQAPGKERELVADITVTGDGTYYADSVKGRFTISRDNAKNTVYLQMNSLKPEDTAVYYCAADFWLVSFQWDFEYDYWGQGTQVTVSS,low polyreactivity
3,QVQLVESVGGLVQAGGSLRLSCAASGYTLGDYAMGWYRQAPGKERELVAVITRNGGRTYYADSVKGRFTISRDNAKNTVYLQMNSLKPEDTAVYYCNRDTSIRHYNYWGQGTQVTVSS,high polyreactivity
4,QVQLVESGGGIVQAGGSLRLSCAASGRIFVRNAMVWYRQAPGKERELVAAISTNGGSTRYADSVKGRFTISRDNAKNTVYLQMNSLKPEDTAVYYCNAYYSHSPRYLKYDYWGLGTQVTVSS,high polyreactivity
5,QVQLVESGGALVQAGGSLRLSCAASGSTIRDYAMGWYRQAPRKERELVAVIDNSGGRTYYADSVKGRFTISRDNAKNTVYLQMNSLKPEDTAVYYCNAYAYPFRGGYWGQGTQVTVSS,high polyreactivity
6,QVQLVDSGGGLVQAGGSLRLSCPASGSTIAWYDMGWYRQEPGKEREFVAAIDYGGGSTYADSVKGRFTISRDNAKNTVYLQMNSLKPDDTAVYYCNADYWVYLYDYWGQGTLVTVSS,low polyreactivity
7,QVQLVESGGGLVQAGGRLRLSCAASGITFYHYAMGWYRQAPGKERELVAAITRSGGRTYYAVSVKGRFTISRDTANNTVYVEMYSLKPEVTAVYYSAARWQKTAGRYYYWGQGTQVTGSS,high polyreactivity
8,QVQLVESGGGLVQAGGSLRLSCAASGFIFTGYAMGWYRQAPGTEREFVAAISYSGGSTYADSVKGRFTISRDNAKNTVYLQMNSLKPEDTAVYYCNARQGLWRYTAENDYWGQGTHVTVSS,low polyreactivity
9,QVQLVESGGCLVQARGSLRLSCAASGFIFRSYAMGWYRPAPGKERELVAAISRSGGSTYYADSVKGRFTISRDNAKNTVYLQMNSLKPEDTAVYYCAAEYRIPYFFTYVYWGQGTKVTVSS,high polyreactivity
10,QVQLVESGGGLVQAGGSLRLSCAASGRIFSQYAMGWNRQAPGKERELVAAITWRGASTYYADSVKGRFTISRDNAKNTVYLQMNSLKPEDTAVYYCAAGYPQGRYYRVRWVGYWGQGTQVTVSS,high polyreactivity
11,QVQLVESGGGLVQAGGSLRLSCAASGSIFGYYAMGWYRQAPGKERELVASISGSGGTTYYADSVKGRFTISRDNAKNTVYLQMNSLKPEDTAVYYCAARRSMYGYPFVTSRRGYWGHGTQVTVSS,high polyreactivity
12,QVQLVESGGGLVQAGGSLRLSCDASGSTFDTYAMGCYTQAPGKERELVAAITEDGASTYYADSVKGRFTISRDNAKYTVYLQMNSLKPEDTAVYYCAAEPTYWPVWYVLYDYLGQGTQVTVSS,low polyreactivity
13,QVHLVESGGGLVQAGGSLRLTCAASGSTFASNVMGWYRQAPGKERELVAAISRRGTRTNYADSVKGRFTISLDNAKNTVYLQMKSLKPEDTAVYYCNTASGTNVVYEFGYWGQGTQVTVSS,high polyreactivity
14,QVQLVESGGGLVQAGGSLRLSCAASGSTFYIYAMGWYRQAPGKERELVARISGSTDYADSVKGRFTISRDNAKNTVYLQMNSLKPEDTAVYYCAARYVYPYWYGDYYWGQGTQVTVSS,low polyreactivity
15,QVQLVESGGGLVQAGGSLRLSCAASGRTFGPYAMGWYRQAPGKERELVAAITSSGGSTYYADSVKGRFTISRDNAKNTVYLQMNSLKPEDTAVYYCNKLYWRQSQDYDYWGQGTQVTVSS,low polyreactivity
16,QVQLVESGGGLVQAGGRLRLSCAASGITFFWNAMGWYRQAPGKERELVAAISSGAGTTYADSVKGRFTISRDNAKNTVYLQMNSLKPEDTAVYYCAKRVDAYGWWGRSSGVLSDYWGQGTQVTVSS,low polyreactivity
17,QVQLVESGGGLVQAGGSLSLSCAASGSTFDYYAMGWYRQAPGKERELVADITYSGGSTYYADSVKGRFTISRDNAKNTVYLQMNSLKPEDTAVYYCNAYYTVYTRYDYWGQGTQVTVSS,high polyreactivity
18,QVQLVESGGGLVQAGGSLRLSCAASGGIPLYYVMGWYRQAPGKERELVADISGDDSTNYADSVKGRFTISRDNAKNTVYLQMNSLKPEDTAVYYCAADGWLWSFTGDGWWFDYWGQGTQVTVSS,low polyreactivity
19,QVQLVESGGGLVQAGGSLRLSCAASGITFDYYPMGWYRQEPGKERELVAVITWSVGSTKYADSVKGRFTISRDNAKNTVYLLMNRLKPEETAVYNCNPRPPRWVRSMDYWGHGTQVTVSS,high polyreactivity
20,QVQLVESGGGLVQAGGSLRLSCAASGSTFRVYAMGWYRQAPGKERELVAAISGSGGSTYYADSVKGRFTISRDNAKNTVYLQMNSLKPEDTAVYYCAGRSWYTEYYWGQGTQVTVSS,high polyreactivity
21,QVQLVESGGGLVQAGGSLRLICAASGRTFKDYAMGWNRQAPGKERELVADISWSGGDTYYADSVKGRFTISRDNAKNTVYLQMNSLKPEDTAVYYCAADWSWCDGEDYHFEYDYWGQGTQVTVSS,low polyreactivity
